Laboratory results as given in patent US8242083B2, “Kinase substrates” (PerkinElmer Health Sciences, Inc., priority 2008, dated 2012).

Key:
Assay type in all cases: biochemical
MUSK = biological target: T1, MUSK (Homo sapiens, UniProt O15146); assay: TR-FRET kinase assay, MUSK; conditions: Kinase Concentration 1 nM; 50 nM ULight-labeled substrate, 200 micromolar ATP, 2 hours
T1 sequence (O15146 24-869): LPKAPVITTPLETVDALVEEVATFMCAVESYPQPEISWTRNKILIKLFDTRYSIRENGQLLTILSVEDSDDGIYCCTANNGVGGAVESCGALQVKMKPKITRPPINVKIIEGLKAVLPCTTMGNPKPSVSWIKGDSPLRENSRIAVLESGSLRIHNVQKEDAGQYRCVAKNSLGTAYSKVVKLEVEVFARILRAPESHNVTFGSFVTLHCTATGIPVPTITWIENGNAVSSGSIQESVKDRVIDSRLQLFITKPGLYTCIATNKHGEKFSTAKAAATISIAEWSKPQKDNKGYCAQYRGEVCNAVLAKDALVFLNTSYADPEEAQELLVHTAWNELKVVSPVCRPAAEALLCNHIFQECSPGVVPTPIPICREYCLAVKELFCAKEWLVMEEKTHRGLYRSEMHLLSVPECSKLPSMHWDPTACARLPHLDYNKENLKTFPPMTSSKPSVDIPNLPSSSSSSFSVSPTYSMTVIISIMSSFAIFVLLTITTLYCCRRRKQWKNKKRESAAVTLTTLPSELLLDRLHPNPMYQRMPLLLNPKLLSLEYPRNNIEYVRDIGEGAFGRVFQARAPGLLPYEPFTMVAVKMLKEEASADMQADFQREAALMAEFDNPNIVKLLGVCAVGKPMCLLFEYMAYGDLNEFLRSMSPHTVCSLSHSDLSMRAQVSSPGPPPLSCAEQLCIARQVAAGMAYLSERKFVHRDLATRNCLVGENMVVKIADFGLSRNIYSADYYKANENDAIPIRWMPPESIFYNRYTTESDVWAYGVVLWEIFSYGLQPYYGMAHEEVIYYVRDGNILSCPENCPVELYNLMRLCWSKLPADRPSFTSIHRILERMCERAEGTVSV
Experimental: (§1) TR-FRET kinase assays are performed under standardized conditions: various individual kinases are incubated with 50 nM of kinase substrate BRB1 labeled with the TR-FRET acceptor dye ULight (PerkinElmer) and 200 micromolar ATP in 10 μL of kinase assay buffer (50 mM HEPES pH7.5, 10 mM MgCl2, 3 mM MnCl2, 1 mM EGTA, 2 mM DTT and 0.01% Tween-20) for 2 hours at room temperature. Reactions are stopped with EDTA, and anti-phospho-tyrosine antibodies (clone PT66) labeled with the TR-FRET europium chelate donor dye are added to a final concentration of 2 nM in a final volume of 20 μL. The TR-FRET signal emitted at 665 nm is read one hour after the addition of antibodies using a TR-FRET plate reader such as the Envision® Multilabel Plate reader (PerkinElmer). The emitted signal at 665 nm is proportional to the extent of peptide phosphorylation, Control reactions indicative of background are performed excluding ATP from the reaction.
(§2) Assay conditions are identical to those used described for FIG. 1.

LYNb = LYNb (Homo sapiens, UniProt P07948); assay: TR-FRET kinase assay, LYNb; conditions: Kinase Concentration 1 nM; 50 nM ULight-labeled substrate, 200 micromolar ATP, 2 hours
Experimental: as §1, §2

TRKA (NTRK1) = TRKA (NTRK1) (Homo sapiens, UniProt P04629); assay: TR-FRET kinase assay, TRKA (NTRK1); conditions: Kinase Concentration 0.5 nM; 50 nM ULight-labeled substrate, 200 micromolar ATP, 2 hours
Experimental: as §1, §2

CSK = CSK (Homo sapiens, UniProt P41240); assay: TR-FRET kinase assay, CSK; conditions: Kinase Concentration 20 nM; 50 nM ULight-labeled substrate, 200 micromolar ATP, 2 hours
Experimental: as §1, §2

EphA1 = biological target: T2, EphA1 (Homo sapiens, UniProt P21709); assay: TR-FRET kinase assay, EphA1; conditions: Kinase Concentration 0.5 nM; 50 nM ULight-labeled substrate, 200 micromolar ATP, 2 hours
T2 sequence (P21709 26-976): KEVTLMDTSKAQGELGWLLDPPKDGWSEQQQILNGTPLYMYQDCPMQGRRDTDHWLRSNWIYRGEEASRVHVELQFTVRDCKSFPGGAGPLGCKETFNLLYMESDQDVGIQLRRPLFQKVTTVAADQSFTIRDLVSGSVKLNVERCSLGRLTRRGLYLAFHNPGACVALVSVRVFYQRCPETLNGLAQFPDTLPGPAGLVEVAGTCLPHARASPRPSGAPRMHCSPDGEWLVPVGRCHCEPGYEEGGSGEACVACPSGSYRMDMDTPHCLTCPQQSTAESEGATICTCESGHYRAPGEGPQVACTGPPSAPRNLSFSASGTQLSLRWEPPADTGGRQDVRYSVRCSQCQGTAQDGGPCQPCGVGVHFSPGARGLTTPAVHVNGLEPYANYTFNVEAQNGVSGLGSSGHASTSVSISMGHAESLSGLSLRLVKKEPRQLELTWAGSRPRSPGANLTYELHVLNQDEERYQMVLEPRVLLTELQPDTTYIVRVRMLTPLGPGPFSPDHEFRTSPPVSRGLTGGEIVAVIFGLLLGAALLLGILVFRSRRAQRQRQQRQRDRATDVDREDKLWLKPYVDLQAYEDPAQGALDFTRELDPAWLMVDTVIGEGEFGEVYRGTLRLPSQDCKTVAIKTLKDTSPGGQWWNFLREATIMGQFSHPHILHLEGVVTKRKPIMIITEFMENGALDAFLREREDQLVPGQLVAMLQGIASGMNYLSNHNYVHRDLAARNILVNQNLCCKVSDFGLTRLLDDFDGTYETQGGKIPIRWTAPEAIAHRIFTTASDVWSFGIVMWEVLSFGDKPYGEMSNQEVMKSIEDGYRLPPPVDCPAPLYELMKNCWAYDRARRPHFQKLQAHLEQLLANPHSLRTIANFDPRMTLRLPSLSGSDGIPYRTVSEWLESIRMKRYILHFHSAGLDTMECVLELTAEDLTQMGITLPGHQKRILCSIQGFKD
Experimental: as §1, §2

Sequence of TRKA (NTRK1) (P04629 33-796, species assumed): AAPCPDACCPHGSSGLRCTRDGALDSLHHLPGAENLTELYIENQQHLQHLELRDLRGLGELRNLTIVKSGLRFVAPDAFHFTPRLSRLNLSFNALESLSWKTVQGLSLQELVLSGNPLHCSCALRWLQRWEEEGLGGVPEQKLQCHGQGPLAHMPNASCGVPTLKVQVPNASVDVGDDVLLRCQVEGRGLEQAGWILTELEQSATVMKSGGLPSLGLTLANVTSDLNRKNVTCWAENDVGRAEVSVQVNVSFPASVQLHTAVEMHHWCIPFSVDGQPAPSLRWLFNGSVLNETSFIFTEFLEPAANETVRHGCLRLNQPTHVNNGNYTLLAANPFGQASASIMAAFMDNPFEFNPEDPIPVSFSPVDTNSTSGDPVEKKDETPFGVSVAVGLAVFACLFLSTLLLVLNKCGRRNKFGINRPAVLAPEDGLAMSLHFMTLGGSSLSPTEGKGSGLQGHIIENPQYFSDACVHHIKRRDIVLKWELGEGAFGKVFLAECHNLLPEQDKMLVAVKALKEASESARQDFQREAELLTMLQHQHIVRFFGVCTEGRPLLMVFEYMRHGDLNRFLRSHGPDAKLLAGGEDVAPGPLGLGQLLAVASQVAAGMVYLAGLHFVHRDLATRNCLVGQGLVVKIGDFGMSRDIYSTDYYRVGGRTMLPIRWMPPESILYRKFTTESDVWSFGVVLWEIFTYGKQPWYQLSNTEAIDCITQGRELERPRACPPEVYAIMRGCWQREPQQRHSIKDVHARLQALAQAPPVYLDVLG
Sequence of LYNb (P07948 1-491 isoform P07948-2, species assumed): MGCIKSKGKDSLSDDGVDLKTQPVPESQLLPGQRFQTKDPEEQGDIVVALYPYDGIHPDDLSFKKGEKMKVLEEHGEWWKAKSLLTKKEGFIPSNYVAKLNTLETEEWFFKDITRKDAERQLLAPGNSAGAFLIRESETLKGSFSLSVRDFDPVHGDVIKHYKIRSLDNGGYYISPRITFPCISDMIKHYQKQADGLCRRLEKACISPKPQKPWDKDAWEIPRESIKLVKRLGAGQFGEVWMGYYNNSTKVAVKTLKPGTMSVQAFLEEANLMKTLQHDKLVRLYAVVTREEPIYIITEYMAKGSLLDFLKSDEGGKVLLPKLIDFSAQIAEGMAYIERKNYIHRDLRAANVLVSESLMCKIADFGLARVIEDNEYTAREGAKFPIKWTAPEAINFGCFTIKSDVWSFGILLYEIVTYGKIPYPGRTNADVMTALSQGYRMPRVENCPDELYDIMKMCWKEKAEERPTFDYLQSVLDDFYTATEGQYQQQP
Sequence of CSK (P41240 whole entry, species assumed): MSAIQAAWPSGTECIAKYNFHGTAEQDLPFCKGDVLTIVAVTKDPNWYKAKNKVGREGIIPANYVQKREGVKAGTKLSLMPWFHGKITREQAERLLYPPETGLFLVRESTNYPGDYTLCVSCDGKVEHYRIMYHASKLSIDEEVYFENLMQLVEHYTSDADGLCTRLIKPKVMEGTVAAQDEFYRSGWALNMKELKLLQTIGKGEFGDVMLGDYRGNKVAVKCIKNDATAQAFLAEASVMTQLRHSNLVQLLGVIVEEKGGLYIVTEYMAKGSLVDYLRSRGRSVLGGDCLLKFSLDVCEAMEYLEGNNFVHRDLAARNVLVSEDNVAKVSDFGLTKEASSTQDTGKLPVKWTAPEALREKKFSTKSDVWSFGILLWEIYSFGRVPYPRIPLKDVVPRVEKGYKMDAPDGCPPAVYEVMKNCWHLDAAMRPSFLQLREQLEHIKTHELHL

Sequence: C AYE AYE AYE K EYA EYA EYA K AYA EYE R (CAYEAYEAYEKEYAEYAEYAKAYAEYER; tyrosine kinase substrate peptide) [BRB1]
- Signal to Noise ratio with BRB1 Peptide (MUSK): 3.1
- Signal to Noise ratio with BRB1 Peptide (LYNb): 33.1
- Signal to Noise ratio with BRB1 Peptide (TRKA (NTRK1)): 23.2
- Signal to Noise ratio with BRB1 Peptide (CSK): 27.2
- Signal to Noise ratio with BRB1 Peptide (EphA1): 10.8
